From patent US12344663B2, “Anti-C3 antibodies and antigen-binding fragments thereof and their uses for treating eye or ocular diseases” (CDR-Life AG, priority 2021, dated 2025)
Like-named read-outs stand apart in the source and are kept apart here. Values belong to the molecule of their own block, whether it stands above or below them.

Columns and labels:
human C3 P314L = target: T1, human C3 P314L (Homo sapiens, UniProt P01024, P314L); experiment: SPR (Biacore T100) binding to C3 SNP1 P314L; conditions: for Kd: Table 20, SPR; for kd C3 SNP1 P314L: off-rate; for ka C3 SNP1 P314L: on-rate
T1 construct: 6×His (N); made in house; host or cells: CHO (ExpiFectamine CHO Expression Kit)
T1 sequence (P01024 23-1663 P314L): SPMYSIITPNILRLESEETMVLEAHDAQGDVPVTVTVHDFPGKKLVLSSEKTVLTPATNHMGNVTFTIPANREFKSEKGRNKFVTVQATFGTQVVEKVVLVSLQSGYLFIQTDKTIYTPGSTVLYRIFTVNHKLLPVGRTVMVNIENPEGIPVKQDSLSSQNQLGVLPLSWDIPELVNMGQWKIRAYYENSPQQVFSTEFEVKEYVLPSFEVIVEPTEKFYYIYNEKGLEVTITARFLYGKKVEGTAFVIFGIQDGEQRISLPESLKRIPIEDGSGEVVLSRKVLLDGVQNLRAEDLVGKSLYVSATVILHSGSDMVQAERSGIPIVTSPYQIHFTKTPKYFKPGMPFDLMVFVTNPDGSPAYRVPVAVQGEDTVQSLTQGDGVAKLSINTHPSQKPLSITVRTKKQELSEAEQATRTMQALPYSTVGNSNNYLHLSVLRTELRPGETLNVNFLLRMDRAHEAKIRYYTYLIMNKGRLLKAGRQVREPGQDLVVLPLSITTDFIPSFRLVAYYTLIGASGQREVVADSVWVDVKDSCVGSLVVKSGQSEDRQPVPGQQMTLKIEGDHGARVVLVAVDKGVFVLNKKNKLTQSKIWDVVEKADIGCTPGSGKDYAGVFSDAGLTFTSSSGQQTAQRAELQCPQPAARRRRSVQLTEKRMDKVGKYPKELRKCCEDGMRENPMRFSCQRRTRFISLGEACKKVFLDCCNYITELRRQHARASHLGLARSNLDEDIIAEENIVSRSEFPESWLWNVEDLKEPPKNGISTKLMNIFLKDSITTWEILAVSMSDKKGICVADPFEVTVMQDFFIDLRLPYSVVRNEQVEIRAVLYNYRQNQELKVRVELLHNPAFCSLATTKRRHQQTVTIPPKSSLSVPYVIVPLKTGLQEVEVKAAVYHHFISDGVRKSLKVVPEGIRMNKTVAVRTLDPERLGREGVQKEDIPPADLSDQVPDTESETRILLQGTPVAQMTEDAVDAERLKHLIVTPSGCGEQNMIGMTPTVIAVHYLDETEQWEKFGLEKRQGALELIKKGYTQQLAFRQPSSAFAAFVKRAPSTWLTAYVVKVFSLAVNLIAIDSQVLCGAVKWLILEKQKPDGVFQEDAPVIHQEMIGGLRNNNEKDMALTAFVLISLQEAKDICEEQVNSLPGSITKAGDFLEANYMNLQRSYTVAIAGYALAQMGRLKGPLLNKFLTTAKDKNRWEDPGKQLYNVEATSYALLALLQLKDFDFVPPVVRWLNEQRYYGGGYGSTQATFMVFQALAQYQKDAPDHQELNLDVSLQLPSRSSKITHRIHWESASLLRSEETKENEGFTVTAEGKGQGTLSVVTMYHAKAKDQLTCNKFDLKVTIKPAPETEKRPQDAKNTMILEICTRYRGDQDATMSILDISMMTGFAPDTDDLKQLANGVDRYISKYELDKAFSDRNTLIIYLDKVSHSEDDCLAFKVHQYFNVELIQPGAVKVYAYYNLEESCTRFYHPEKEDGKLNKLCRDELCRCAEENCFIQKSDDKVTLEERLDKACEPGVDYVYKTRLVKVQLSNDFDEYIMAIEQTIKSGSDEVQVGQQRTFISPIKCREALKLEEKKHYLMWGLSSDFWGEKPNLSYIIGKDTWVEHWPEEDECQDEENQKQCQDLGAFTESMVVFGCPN
Procedure: (§1) The kinetic parameters of the candidates are determined using a surface plasmon resonance (SPR) and Biacore T100 device. C3 and different variants thereof (Table 19) are immobilized as a ligand on a HC30M SPR sensor chip (XanTec bionanalytics, Germany) using EDC/[…] linking chemistry. Five increasing concentrations of each molecule (analyte) are consecutively injected using the single cycle kinetics (SCK) mode to determine the kinetic parameters. Regeneration between the candidates is done with 10 mM glycine*HCl, 2 M NaCl, pH 3.5. The data is fitted to a 1:1 Langmuir binding model and the kinetic parameters of on-rate (ka), off-rate (kd), and affinity […] were determined.
Single nucleotide polymorphism (SNP) in C3 has been observed across the population and certain SNPs were identified in genome-wide association studies (GWAS) to correlate with an increased risk to develop AMD. […] Very rare variants, which occur in less that 2.5% of the population include K155Q, R735W, S1619W, K65Q and R161W.
(§2) Proteins are expressed with N-terminal 6×His tag and purified using a HisTrap Excel HP column (GE Healthcare), followed by a size-exclusion chromatography step (SUPERDEX®20010/300GL; GE Healthcare).

Classical Pathway = experiment: WEISLAB Complement system Screen, classical pathway MAC (C5b-C9) formation; type: biochemical, human; conditions: human serum; read-out: IC50 (nM) Classical Pathway MAC deposition
Procedure: (§3) To identify antibodies that block all 3 complement pathways, antibodies are screened using an enzyme immunoassay for the qualitative determination of functional classical, lectin and alternative complement pathways in human serum using the WEISLAB® Complement system Screen (Svar Life Science AB, Malmö, Sweden).
(§4) To monitor inhibition of the complement system in human serum, the scFv of the invention or the comparator molecules are tested using an enzyme immunoassay for the qualitative determination of functional classical, lectin and alternative complement pathways in human serum using the WEISLAB® Complement system Screen (Svar Life Science AB, Malmö, Sweden), following the supplier's instructions. The amount of C5b-C9 neoantigen generated is proportional to the functional activity of complement pathways. The scFv of the invention and the comparator molecules are tested in a concentration response curve and the IC50 for the inhibition is calculated using the GraphPadPrism software and a non-linear, 4 parameters curve regression.

Alternative Pathway = experiment: WEISLAB Complement system Screen, alternative pathway MAC (C5b-C9) formation; type: biochemical, human; conditions: human serum; read-out: IC50 (nM) Alternative Pathway MAC deposition
Procedure: as §3, §4

human C3b = target: T2, human C3b (Homo sapiens, UniProt P01024); experiment: SPR (Biacore T100) binding to human C3b; conditions: for kd C3b: off-rate; for ka C3b: on-rate
T2 construct: C3b is derived from native C3 and is the larger of two elements formed by the cleavage of C3
T2 sequence (P01024 23-667 limits assumed): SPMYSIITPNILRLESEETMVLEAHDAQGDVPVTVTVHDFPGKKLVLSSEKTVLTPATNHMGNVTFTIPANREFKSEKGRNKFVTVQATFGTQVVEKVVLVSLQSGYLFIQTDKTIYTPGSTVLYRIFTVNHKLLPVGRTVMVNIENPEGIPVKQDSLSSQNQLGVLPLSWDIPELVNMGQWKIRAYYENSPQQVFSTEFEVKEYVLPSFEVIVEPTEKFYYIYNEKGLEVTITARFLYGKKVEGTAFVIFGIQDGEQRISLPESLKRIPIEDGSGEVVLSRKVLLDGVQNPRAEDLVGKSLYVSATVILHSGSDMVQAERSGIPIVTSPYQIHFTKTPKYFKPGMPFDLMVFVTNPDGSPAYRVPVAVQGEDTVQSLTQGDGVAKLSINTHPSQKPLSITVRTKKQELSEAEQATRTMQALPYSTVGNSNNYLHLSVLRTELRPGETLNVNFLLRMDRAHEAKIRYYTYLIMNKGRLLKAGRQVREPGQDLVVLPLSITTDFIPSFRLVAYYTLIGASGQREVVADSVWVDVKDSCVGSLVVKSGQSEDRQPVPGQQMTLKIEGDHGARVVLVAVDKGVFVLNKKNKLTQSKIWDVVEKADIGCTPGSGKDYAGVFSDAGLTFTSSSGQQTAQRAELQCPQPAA
T2 sequence (P01024 749-1663 limits assumed): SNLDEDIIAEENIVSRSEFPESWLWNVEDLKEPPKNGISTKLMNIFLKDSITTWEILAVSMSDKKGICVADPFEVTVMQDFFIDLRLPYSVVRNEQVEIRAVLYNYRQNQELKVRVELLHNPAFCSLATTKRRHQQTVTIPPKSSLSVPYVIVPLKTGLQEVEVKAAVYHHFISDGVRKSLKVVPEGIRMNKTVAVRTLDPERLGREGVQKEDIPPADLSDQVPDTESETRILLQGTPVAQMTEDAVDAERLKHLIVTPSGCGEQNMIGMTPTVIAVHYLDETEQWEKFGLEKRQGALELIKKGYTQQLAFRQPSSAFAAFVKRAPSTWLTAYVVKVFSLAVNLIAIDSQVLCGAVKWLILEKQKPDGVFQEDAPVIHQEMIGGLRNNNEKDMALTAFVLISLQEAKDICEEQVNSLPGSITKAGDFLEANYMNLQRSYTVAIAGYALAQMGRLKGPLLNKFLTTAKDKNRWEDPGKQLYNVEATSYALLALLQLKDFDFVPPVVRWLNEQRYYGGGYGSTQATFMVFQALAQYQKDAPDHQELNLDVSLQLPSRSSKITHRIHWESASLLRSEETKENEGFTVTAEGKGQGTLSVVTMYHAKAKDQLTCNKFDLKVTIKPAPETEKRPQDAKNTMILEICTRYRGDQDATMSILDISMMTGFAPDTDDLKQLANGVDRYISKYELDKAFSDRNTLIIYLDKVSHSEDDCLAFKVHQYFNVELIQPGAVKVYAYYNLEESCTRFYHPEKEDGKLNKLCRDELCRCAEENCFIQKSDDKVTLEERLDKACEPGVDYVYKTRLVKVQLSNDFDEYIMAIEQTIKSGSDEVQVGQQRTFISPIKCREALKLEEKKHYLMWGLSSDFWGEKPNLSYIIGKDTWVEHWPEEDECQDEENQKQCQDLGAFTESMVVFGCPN
Procedure: as §1

[1] = target: T3, recombinant C3 (wild-type human C3) (Homo sapiens, UniProt P01024); experiment: SPR (Biacore T100) binding to recombinant C3; conditions: for Kd: Table 20, SPR; for kd recombinant C3: off-rate; for ka recombinant C3: on-rate
T3 construct: 6×His (N); made in house; host or cells: CHO (ExpiFectamine CHO Expression Kit)
T3 sequence (P01024 23-1663): as the sequence (P01024 23-1663 P314L) above, with L292P counted along it
Procedure: as §1, §2

Lectin Pathway = experiment: WEISLAB Complement system Screen, lectin pathway MAC (C5b-C9) formation; type: biochemical, human; conditions: human serum; read-out: IC50 (nM) Lectin Pathway MAC deposition
Procedure: as §3, §4

pre-existing ADA = experiment: Bridging ELISA screen for pre-existing ADA in sera of healthy human donors; conditions: 10% serum of healthy human donors
Text: The inventors screen sera of healthy human donors for pre-existing ADA against Clone I using a bridging ELISA. Pre-existing ADAs present in serum from healthy human donors are bound by immobilized anti-C3 scFv. In a next step, ADAs are bound by the same anti-C3 scFv labeled with biotin and are detected by HRP-conjugated Streptavidin.
The scFv is biotin-labeled using the “Biotin Conjugation Kit (Fast, Type A)-Lightning-Link”-Kit (Expedeon/Abcam) following the suppliers' instructions. The unlabeled scFv is diluted to 0.5 μg/ml in PBS, 50 μl per well transferred to a 96 well plate and incubated overnight at 4° C. On the next day, the 96 well plate is washed with wash buffer (3×320 μl, 0.05% Tween 20 in PBS pH 7.4) and non-specific binding sites are blocked with 300 μl/well blocking buffer (SuperBlock Blocking Buffer; ThermoFisher scientific) for 30 min at room temperature. The wells are then washed with wash buffer (3×320 μl/well)
Human serum from healthy volunteers is diluted to 10% in PBS, 50 μl/well are added to the 96 well plate and the plate incubated for 1 hr at room temperature. […]
The plate is washed (3×320 μl/well wash buffer), 50 μl/well TMB substrate (Invitrogen) is added and incubated for 5 min at room temperature. […] The absorption is measured at 450 nm. […]

human C3 = human C3 (Homo sapiens, UniProt P01024); experiment: SPR (Biacore T100) binding to human C3; conditions: for kd C3: off-rate; for ka C3: on-rate
Sequence of human C3 (P01024 23-1663): as the sequence (P01024 23-1663 P314L) above, with L292P counted along it
Procedure: as §1

[2] = Table 19, SPR, read-out: Affinity human C3b
[3] = Table 20, SPR, read-out: KD (nM) C3b
[4] = Table 19, SPR, read-out: Affinity human C3
[5] = Table 20, SPR, read-out: KD (nM) C3

Kd (human C3 P314L): 0.14 nM
kd C3 SNP1 P314L (human C3 P314L): 4.2e-05 s⁻¹
ka C3 SNP1 P314L (human C3 P314L): 300000 M⁻¹ s⁻¹
IC50 (Classical Pathway): 79 nM
IC50 (Alternative Pathway): 344 nM
Kd (human C3b; Table 16, read-out: C3b (Kd)): 0.14 nM
Kd (human C3b; [2]): 0.149 nM
Kd (human C3b; [3]): 0.149 nM
kd C3b (human C3b): 4.8e-05 s⁻¹
ka C3b (human C3b): 320000 M⁻¹ s⁻¹
Kd [1]: 0.148 nM
kd recombinant C3 [1]: 4.9e-05 s⁻¹
ka recombinant C3 [1]: 330000 M⁻¹ s⁻¹
IC50 (Lectin Pathway): 67 nM
Kd (human C3; Table 16, read-out: C3 (Kd)): 0.16 nM
Kd (human C3; [4]): 0.152 nM
Kd (human C3; [5]): 0.152 nM
kd C3 (human C3): 4.7e-05 s⁻¹
ka C3 (human C3): 310000 M⁻¹ s⁻¹
B1: Clone I: humanized anti-C3 scFv, VH SEQ ID NO: 20, VL SEQ ID NO: 21; scFv SEQ ID NO: 26 or 27 (antibody, V domains shown)
VH: QVQLVESGGGSVQPGRSLRLSCAASGFTFSNYAMNWVRQAPGKGLEWVAVISYDGSNKYYADSVKGRFTISRDNSKNTLYLQMNSLRAEDTASYYCARAVGYHHARLDPWGCGTSVTVSS
VL: QLVLTQSPSASASLGASVKLTCTLSSAHKTYTIDWYQQQPEKCPRYLMQLKSDGSYTKGSGIPDRFSGSSSGAERYLTISSLQSEDEADYYCGTEGVGGYVFGGGTKLTVLG
modifications: VH; VL
Serum samples with pre-existing ADA (pre-existing ADA): 9 out of 50

Kd (human C3 P314L): < 0.04 nM
kd C3 SNP1 P314L (human C3 P314L): <1.1e-05 s⁻¹
ka C3 SNP1 P314L (human C3 P314L): 290000 M⁻¹ s⁻¹
IC50 (Classical Pathway): 77 nM
IC50 (Alternative Pathway): 360 nM
Kd (human C3b; [2]): 0.05 nM
Kd (human C3b; [3]): 0.05 nM
kd C3b (human C3b): 1.2e-05 s⁻¹
ka C3b (human C3b): 250000 M⁻¹ s⁻¹
Kd [1]: 0.035 nM
kd recombinant C3 [1]: 1e-05 s⁻¹
ka recombinant C3 [1]: 300000 M⁻¹ s⁻¹
IC50 (Lectin Pathway): 71 nM
Kd (human C3; [4]): 0.022 nM
Kd (human C3; [5]): 0.022 nM
kd C3 (human C3): 5.5e-06 s⁻¹
ka C3 (human C3): 250000 M⁻¹ s⁻¹
B2: Clone II: humanized anti-C3 scFv, VH SEQ ID NO: 22, VL SEQ ID NO: 23; scFv SEQ ID NO: 28 or 29 (antibody, V domains shown)
VH: QVQLVESGGGSVQPGRSLRLSCAASGFTFSNYAMNWVRQAPGKGLEWVAIINVGGGTNYADSVKGRFTISRDNSKNTLYLQMNSLRAEDTASYYCARAVGYHHARLDPWGCGTSVTVSS
VL: B1 VL
modifications: VH; VL
